Test results reported in patent publication US20110305634A1.
Like-named read-outs stand apart in the source and are kept apart here.

What was measured:
[1] = molecular target: Ad5/3L-GFP chimeric adenovirus vector (human adenovirus serotype 5; human adenovirus serotype 3) (UniProt P11818)
[2] = molecular target: Recombinant human DSG2 protein (desmoglein 2) (human) (UniProt Q14126); experiment: SPR, DSG2 immobilized; summary table of FIG. 13B (no unit in the table, RU from the axis of 13B)
[3] = molecular target: Recombinant human DSG2 protein (desmoglein 2) (human) (UniProt Q14126); experiment: SPR, DSG2 immobilised, Ad3-K/S/Kn injected at 10 mg/ml (so in the source)
[4] = molecular target: Recombinant human DSG2 protein (desmoglein 2) (human) (UniProt Q14126); experiment: SPR, DSG2 immobilized; summary table of FIG. 13B
[5] = molecular target: Recombinant human DSG2 protein (desmoglein 2) (human) (UniProt Q14126); experiment: SPR (BIAcore 3000), recombinant human DSG2 immobilised on CM4 chip, PtDd injected
[6] = molecular target: Desmoglein 2 (DSG2) of human cells (human) (UniProt Q14126)
Desmoglein 2 (DSG2) of human cells (human), sequence (Q14126 50-1118): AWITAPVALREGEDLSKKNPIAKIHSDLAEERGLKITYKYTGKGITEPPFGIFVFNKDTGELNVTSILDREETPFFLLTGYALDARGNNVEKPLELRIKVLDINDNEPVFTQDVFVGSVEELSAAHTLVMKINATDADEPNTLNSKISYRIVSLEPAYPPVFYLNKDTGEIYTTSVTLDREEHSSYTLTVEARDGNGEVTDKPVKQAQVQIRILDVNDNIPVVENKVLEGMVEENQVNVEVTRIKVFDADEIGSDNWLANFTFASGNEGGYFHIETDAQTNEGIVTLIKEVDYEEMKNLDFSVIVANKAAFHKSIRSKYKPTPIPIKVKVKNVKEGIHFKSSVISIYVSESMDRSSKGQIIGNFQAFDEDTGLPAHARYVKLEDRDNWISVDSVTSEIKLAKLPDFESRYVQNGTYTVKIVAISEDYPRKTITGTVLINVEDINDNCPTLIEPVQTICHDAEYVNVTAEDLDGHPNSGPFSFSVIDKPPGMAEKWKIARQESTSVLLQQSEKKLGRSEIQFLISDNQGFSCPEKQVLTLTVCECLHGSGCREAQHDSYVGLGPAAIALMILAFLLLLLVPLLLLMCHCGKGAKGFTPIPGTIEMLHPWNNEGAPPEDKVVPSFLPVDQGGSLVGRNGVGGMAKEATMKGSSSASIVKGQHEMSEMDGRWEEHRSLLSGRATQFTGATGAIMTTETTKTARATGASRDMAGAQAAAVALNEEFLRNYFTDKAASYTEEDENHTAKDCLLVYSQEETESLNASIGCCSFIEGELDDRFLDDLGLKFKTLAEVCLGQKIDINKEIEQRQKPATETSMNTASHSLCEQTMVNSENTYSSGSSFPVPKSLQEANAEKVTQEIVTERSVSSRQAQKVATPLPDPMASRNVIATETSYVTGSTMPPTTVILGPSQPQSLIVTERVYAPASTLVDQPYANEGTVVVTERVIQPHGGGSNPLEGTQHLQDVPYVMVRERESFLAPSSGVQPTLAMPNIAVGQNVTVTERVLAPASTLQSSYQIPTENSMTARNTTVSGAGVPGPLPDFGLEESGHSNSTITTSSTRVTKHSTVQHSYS

[7] = molecular target: Desmoglein 2 (DSG2) of human cells (human) (UniProt Q14126); experiment: competition of 3H-Ad3 attachment to HeLa cells after pre-incubation with the named protein; the number is the Ad3 still bound (PBS: 512)
[8] = molecular target: Desmoglein 2 (DSG2) of human cells (human) (UniProt Q14126); remark: listed apart in the source
[9] = molecular target: Desmoglein 2 (DSG2) of human cells (human) (UniProt Q14126); remark: listed apart in the source
[10] = molecular target: Desmoglein 2 (DSG2) of human cells (human) (UniProt Q14126); experiment: cell-based or functional assay
[11] = molecular target: Desmoglein 2 (DSG2) of human cells (human) (UniProt Q14126); remark: listed apart in the source
[12] = molecular target: Recombinant human DSG2 protein (desmoglein 2) (human) (UniProt Q14126); experiment: SPR, DSG2 immobilised, PtDd injected at 3 mg/ml (so in the source)

Recombinant human DSG2 protein (desmoglein 2) (human), sequence (Q14126 50-609 limits assumed): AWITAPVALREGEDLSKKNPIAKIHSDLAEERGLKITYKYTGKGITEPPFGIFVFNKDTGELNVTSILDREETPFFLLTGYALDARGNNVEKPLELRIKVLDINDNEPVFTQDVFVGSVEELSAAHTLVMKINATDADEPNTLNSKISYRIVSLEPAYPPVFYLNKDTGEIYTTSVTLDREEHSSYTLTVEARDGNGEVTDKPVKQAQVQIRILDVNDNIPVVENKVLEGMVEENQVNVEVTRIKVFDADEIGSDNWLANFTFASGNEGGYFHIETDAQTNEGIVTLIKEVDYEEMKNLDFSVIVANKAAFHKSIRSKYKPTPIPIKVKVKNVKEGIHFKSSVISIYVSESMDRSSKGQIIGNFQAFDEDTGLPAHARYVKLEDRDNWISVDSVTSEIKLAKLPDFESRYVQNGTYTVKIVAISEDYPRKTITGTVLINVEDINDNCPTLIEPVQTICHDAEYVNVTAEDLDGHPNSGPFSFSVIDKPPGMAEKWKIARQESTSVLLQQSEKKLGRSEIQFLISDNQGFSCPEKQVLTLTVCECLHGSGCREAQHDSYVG
Recombinant human DSG2 protein (desmoglein 2), sequence (Q14126 50-609 limits assumed): as above

Work on “Recombinant human DSG2 protein (desmoglein 2) (from UniProt Q14126 50-609) (receptor)” yielded an IC50 (read off the curve), Ad5/3L-GFP transduction of HeLa cells (GFP MFI) [1] of 1 µg/mL.
With “Ad3-K/S/Kn, junction opener 1 (JO-1) (ligand; other documents disagree on this pair)” the Binding at the end of association [2] was 113 RU, the Remaining binding after 150s dissociation [2] was 96.9 RU and the SPR response [3] was 100 RU. It also gave a % of remaining binding after 150s [4] of 85.9%.
“Recombinant Ad3 penton-dodecahedra (PtDd)” gave a Kd [5] of 2.5 nM, an IC50 (read off the curve), Ad3-GFP infection of HeLa cells (% of GFP+ cells) [6] of 0.7 µg/mL and a Bound 3H-Ad3 VP/cell (with this competitor) [7] of 12 VP/cell. It also gave an IC50 (read off the curve), Ad3-GFP transduction of HeLa cells (% of GFP+ cells) [8] of 2 µg/mL, an IC50 (read off the curve), Ad3-GFP transduction of HeLa cells (% of GFP+ cells) [9] of 1 µg/mL and a Binding at the end of association [2] of 133 RU. It also gave a Remaining binding after 150s dissociation [2] of 130 RU, a Herceptin cytotoxicity on BT474 cells (WST-1 viability) [10] of 2 fold and an IC50 (read off the curve), Ad3-GFP transduction of HeLa cells (GFP MFI) [11] of 0.2 µg/mL. It also gave an IC50 (read off the curve), Ad5/3L-GFP transduction of HeLa cells (GFP MFI) [11] of 0.5 µg/mL, an IC50 (read off the curve), Ad5/3S-GFP transduction of HeLa cells (GFP MFI) [11] of 0.2 µg/mL and a % of remaining binding after 150s [4] of 98%. For the same substance, the SPR response [12] was 100 RU.
Recombinant Ad3 base dodecahedra (BsDd) gave a Bound 3H-Ad3 VP/cell (with this competitor) [7] of 556 VP/cell.
